This is an account of results in US20040063641A1, “Use of growth hormone or a growth hormone secretagogue for promoting bone formation” (priority 1996, published 2004).

Test [1] has as its system distracted tibia (bone regenerate). Kind of test: Mechanical torsion testing of distracted tibia after callus distraction in mini-pigs. It counts as in vivo, Yucatan mini-pigs. As to conditions: r-pGH 100 μg/kg daily injection. Here is the method:
After sacrifice, the right and left limb were dissected. The soft tissue around the joints was removed, and the ends of the tibia were casted in Beracryl. The constructs were placed in a materials testing machine (Zwick, Ulm, Germany), and torsional moments were applied. Resulting displacements and torsional moments were recorded. The test was conducted with a speed of 30° per minute until failure. The system automatically terminated the test at a torque of […]. The final bone torsional strength of a mini-pig group treated with growth hormone was investigated relative to a control group. 30 mature female Yucatan mini-pigs were equally distributed into two treatment groups. Mini-pigs in the study group received a daily injection of recombinant porcine growth hormone (r-pGH: 100 μg/kg), the mini-pigs in the control group received sodium chloride as placebo. The left tibiae and fibulae were osteotomized and stabilized with an external fixator. Full weight bearing was permitted. The legs were distracted twice daily at 2 mm/day for 10 days and then allowed to consolidate for 10 days. After sacrifice, torsional moments were applied to the distracted and the contralateral tibia in a material testing machine and the maximum torsional moment was determined. Four animals were removed from the study due to bone infection or surgery failure and data of 2 animals were lost due to test machine failure. A t-test was used to determine differences in maximum torsional moments between the treatment groups.

Another test relates to healing fracture. Particulars: dogs treated with cST; no distraction; cited from earlier work.

B1: GH: recombinant porcine growth hormone (r-pGH), homologous GH given by daily injection to mini-pigs (protein, UniProt P01248 27-216, looked up)
Somatotropin: FPAMPLSSLFANAVLRAQHLHQLAADTYKEFERAYIPEGQRYSIQNAQAAFCFSETIPAPTGKDEAQQRSDVELLRFSLLLIQSWLGPVQFLSRVFTNSLVFGTSDRVYEKLKDLEEGIQALMRELEDGSPRAGQILKQTYDKFDTNLRSDDALLKNYGLLSCFKKDLHKAETYLRVMKCRRFVESSCAF
With B1, in test [1] (at sacrifice, p<0.001 vs control), the “maximum torsional moment in comparison to the intact contralateral tibia” value amounted to 64±22.4%. Besides, the maximum torsional moment in test [1] (distracted tibia at sacrifice, mean±SD, p=0.001 vs placebo) was 19.5±7.8 Nm. Moreover, the “maximum torsional moment, higher than that of the placebo group” value in test [1] (distraction 2 mm/day for 10 days, consolidation 10 days, at sacrifice, p=0.001) is reported as 131%.

B2: cST: canine somatotropin, given to dogs in the cited study of Buonomo et al. (protein, UniProt P33711 27-216, looked up)
Somatotropin: B1 Somatotropin
Regarding B2, in the test with healing fracture, the “increase of stiffness of the healing fracture as compared to non-treated dogs” value is 5 fold and the “increase of strength of the healing fracture as compared to non-treated dogs” value is 3 fold.
